Source: the supplement of paper PMC12042874
± gives the uncertainty stated by the source.

Test: amyloid nucleation score (Sup35N fusion, yeast selection) (log enrichment); library NNK2; higher = more nucleation; inactive = no reads after selection
Procedure, shortened: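 The nucleation score is the log enrichment of output over input reads, calculated with DiMSum and centred on the mode score of non-aggregating sequences. Sequences with under 100 input reads were excluded. Reads came from Illumina sequencing of plasmid inserts from psi-negative yeast expressing Sup35N fused to peptides of 20 random codons, induced 24 hours with 100 μM copper sulfate and grown 7 days at 30°C without adenine and uracil.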

Substance	amyloid nucleation score
YLRTYLW	-0.208 ± 0.49
THKNLEC	0.681 ± 0.17
CFPPFLC	0.13 ± 1.1
SCDVTHGGLRQSKHGSGESG	7.7 ± 0.083
NFYILLATGSFYAVLGCRQY	2.36 ± 0.12
NQLKGYTIYWVL	4.45 ± 0.063
VCFLQFYLSIFTTHTVSTYK	-0.547 ± 0.76
RFGGSVYARGERL	-0.159 ± 0.46
NIRKMSGFVNSYTAYSQGEL	inactive
GVVLNLDTWLVDEVPDGVRM	0.057 ± 0.76
AAVSSCLLFYSC	3.5 ± 0.082
ILGVLGFGGSRDRLSTRWGS	1.66 ± 0.16
HRVFNEGASMGTCCSILLEM	6.047 ± 0.042
SGYPRRIYWLVGKCLWYHRA	0.921 ± 0.48
CGATQHSGTQVDLKLGFI	-0.321 ± 1.1
IYWLSYQTMVPIQAVYIHRC	-0.087 ± 0.42
YSGLKCALCRCC	1.94 ± 0.3
CRPGRLYVQIIFISMIRDNR	-0.513 ± 0.48
CDANM	0.785 ± 0.51
NWFHVRTDCRRWGGRKVYYN	-0.883 ± 1.1
WLVKLSGDMF	2.54 ± 0.073
RGGSIIYHALVRVVFFLSVY	-1.01 ± 0.64

Substance	amyloid nucleation score
LKAWYYSVYSRTVTYSPMLH	-1.03 ± 0.61
KDPLNYNSYSVLLDIWWNLS	1.57 ± 0.15
DAVRQGTL	0.102 ± 1.1
SVCYGSSIWN	-0.083 ± 0.39
SAFIVNCNLINAQERDFKSD	6.682 ± 0.034
VPVFFGPFQYT	-0.419 ± 0.63
RMVMSE	0.16 ± 0.31
SKKELLNAVPVGMG	0.113 ± 0.63
SFHFCWFRYNWCYFGLS	0.058 ± 1
SCLTDQDERPGLWELSCRYM	1.1 ± 0.34
LFCTRMEVSLLGFWNSYAEL	-0.01 ± 0.45
GVEVKSNVWTVSGWESQTPQ	1.89 ± 0.42
VHLPCGYLKFRGLMYWRREL	0.479 ± 0.34
VNWRLKHWLGEDDPLPVTSF	-0.267 ± 0.63
LALIMTFLQPGERLRGSVAI	inactive
VKRYGINGGFNYSSYCTAGI	inactive
VYLVRKWRSGWRYLTRVI	1.24 ± 0.41
LFAIKTGQDHCNTRLKKSQC	-0.087 ± 0.76
CVVDLDPCNGDAGLSSYTIS	0.594 ± 0.13
WCRWMGMH	0.543 ± 0.47
CSLPCVTNWCRRRNMVSQPV	-1.11 ± 1.1
LMCTSAKSADMSH	0.992 ± 0.6

Substance	amyloid nucleation score
VFSNDASDNTRGRWLGYGFF	inactive
RFRRSVFMLMHGWRSTVFIV	1.07 ± 0.34
FKGHHGHKVWETH	-0.145 ± 1.1
PRKLLSLKPNSTAAGKCATL	2.89 ± 0.079
LILLY	-0.277 ± 1
HSMAWNVG	inactive
CISTYN	-0.822 ± 0.44
FYSFGGNGDYSPKSGHWS	inactive
YCRHIAVECSVGLHWHGGTV	3.26 ± 0.15
VVWARYSVNLWMNLGSQASF	4.01 ± 0.1
ELSHSLSIKATVEGS	0.279 ± 0.56
RTVLFAGCAVSNEMFCEKLV	3.68 ± 0.077
SLYFLTGWSFMMDQGVSTPC	6.934 ± 0.058
SCVGTN	-0.062 ± 0.55
QLTQYQSKTRTMCRKQERTV	1.88 ± 0.43
YANDFLRLVHVWFREVIIKL	-0.398 ± 1
DFLWTFVGNFLE	-1.43 ± 0.78
KLGVKLASTLGISRLPHTTS	0.827 ± 0.23
MSILTCVPGTNIINSQW	inactive
GVLMIYYWVSMCLYALLIVF	inactive
SYFGSAHKVAEAHL	0.377 ± 0.45
PCACCYGSLAYAAVHSNWLG	8.495 ± 0.07

Substance	amyloid nucleation score
GVIWTRAVANCIVLSGMS	-0.149 ± 0.55
FHQIKFRVSFMHCRTSSANI	2.25 ± 0.089
KDGEVAAMPGRGVHQVMGEK	0.325 ± 0.49
KRSLLQKLCC	-0.421 ± 0.61
YSGAYRLHYGFHIIICVCRW	3.21 ± 0.066
VGEKCDL	-0.023 ± 0.55
FTFFIRYLERDWPRLL	-0.549 ± 0.74
DSVCYNFNFNTF	5.711 ± 0.027
LGWRVGWYASDAFYKPEWFD	-0.53 ± 0.41
FPTFQSLRDPRHMLFRGNFM	-0.317 ± 1.1
TGYAWGG	2.16 ± 0.22
STQYPTMVERLS	1.75 ± 0.3
ESYIWMLRGHMLCKDEVMNV	-0.611 ± 0.74
EYRYCMTHYYFLRCKLFNIF	-1.06 ± 0.63
NKVMGAEGCTGLEL	-0.744 ± 0.28
FVSGDHGTVWYIT	-0.036 ± 0.48
VVAFRMSSDNAHSHDLPVPW	5.59 ± 0.073
RSFEVKLFARSLKHIPDLTP	1.02 ± 0.35
EFTAFYGQEFKW	0.182 ± 1.1
SMRYDRDNHKHPFNIEAMRY	-0.096 ± 0.46
LTFLYGVGVRFCRPSLVVQS	0.2 ± 0.24
